In assay [1] the target is triple-helical peptide II-27-B (II-27-derived sequence with GVOGEA within (GPP)5 hosts) (O in the letters is hydroxyproline). The assay is described as follows: real-time label-free cell adhesion.
The target in assay [2] is triple-helical peptide II-27-C (II-27-derived sequence with GVOGEA within (GPP)5 hosts) (O in the letters is hydroxyproline). The assay is described as follows: real-time label-free cell adhesion.

B1: integrin α1β1 on rat pheochromocytoma PC12 cells (receptor, rat (endogenous in PC12))
chain 1: FNVDVKNSMSFSGPVEDMFGYTVQQYENEEGKWVLIGSPLVGQPKARTGDVYKCPVGRERAMPCVKLDLPVNTSIPNVTEIKENMTFGSTLVTNPNGGFLACGPLYAYRCGHLHYTTGICSDVSPTFQVVNSFAPVQECSTQLDIVIVLDGSNSIYPWESVIAFLNDLLKRMDIGPKQTQVGIVQYGENVTHEFNLNKYSSTEEVLVAANKIGRQGGLQTMTALGIDTARKEAFTEARGARRGVKKVMVIVTDGESHDNYRLKQVIQDCEDENIQRFSIAILGHYNRGNLSTEKFVEEIKSIASEPTEKHFFNVSDELALVTIVKALGERIFALEATADQSAASFEMEMSQTGFSAHYSQDWVMLGAVGAYDWNGTVVMQKANQMVIPHNTTFQTEPAKMNEPLASYLGYTVNSATIPGDVLYIAGQPRYNHTGQVVIYKMEDGNINILQTLGGEQIGSYFGSVLTTIDIDKDSYTDLLLVGAPMYMGTEKEEQGKVYVYAVNQTRFEYQMSLEPIRQTCCSSLKDNSCTKENKNEPCGARFGTAIAAVKDLNVDGFNDVVIGAPLEDDHAGAVYIYHGSGKTIREAYAQRIPSGGDGKTLKFFGQSIHGEMDLNGDGLTDVTIGGLGGAALFWARDVAVVKVTMNFEPNKVNIQKKNCRVEGKETVCINATMCFHVKLKSKEDSIYEADLQYRVTLDSLRQISRSFFSGTQERKIQRNITVRESECIRHSFYMLDKHDFQDSVRVTLDFNLTDPENGPVLDDALPNSVHEHIPFAKDCGNKERCISDLTLNVSTTEKSLLIVKSQHDKFNVSLTVKNKGDSAYNTRTVVQHSPNLIFSGIEEIQKDSCESNQNITCRVGYPFLRAGETVTFKIIFQFNTSHLSENAIIHLSATSDSEEPLESLNDNEVNISIPVKYEVGLQFYSSASEHHISVAANETIPEFINSTEDIGNEINVFYTIRKRGHFPMPELQLSISFPNLTADGYPVLYPIGWSSSDNVNCRPRSLEDPFGINSGKKMTISKSEVLKRGTIQDCSSTCGVATITCSLLPSDLSQVNVSLLLWKPTFIRAHFSSLNLTLRGELKSENSSLTLSSSNRKRELAIQISKDGLPGRVPLWVILLSAFAGLLLLMLLILALWKIGFFKRPLKKKMEK
chain 2: QTDKNRCLKANAKSCGECIQAGPNCGWCTNTTFLQEGMPTSARCDDLEALKKKGCHPSDIENPRGSQTIKKNKNVTNRSKGMAEKLRPEDITQIQPQQLLLKLRSGEPQKFTLKFKRAEDYPIDLYYLMDLSYSMKDDLENVKSLGTDLMNEMRRITSDFRIGFGSFVEKTVMPYISTTPAKLRNPCTSEQNCTSPFSYKNVLSLTDRGEFFNELVGQQRISGNLDSPEGGFDAIMQVAVCGSLIGWRNVTRLLVFSTDAGFHFAGDGKLGGIVLPNDGQCHLENNVYTMSHYYDYPSIAHLVQKLSENNIQTIFAVTEEFQPVYKELKNLIPKSAVGTLSGNSSNVIQLIIDAYNSLSSEVILENSKLPDGVTINYKSYCKNGVNGTGENGRKCSNISIGDEVQFEISITANKCPNKESENQLKLNPLGFTEEVEVVLQFICKCNCQSHGIPASPKCHEGNGTFECGACRCNEGRVGRHCECSTDEVNSEDMDAYCRKENSSEICSNNGECVCGQCVCRKRENTNEIYSGKFCECDNFNCDRSNGLICGGNGVCRCRVCECYPNYTGSACDCSLDTVPCVATNGQICNGRGICECGACKCTDPKFQGPTCETCQTCLGVCAEHKECVQCRAFNKGEKKDTCAQECSHFNLTKVESREKLPQPVQVDPVTHCKEKDIDDCWFYFTYSVNSKGEAHVHVVETPDCPTGPDIIPIVAGVVAGIVLIGLALLLIWKLLMIIHDRREFAKFEKEKMNAKWDTGENPIYKSAVTTVVNPKYEGK
As for B1, the “adhesion relative to that on II-27” value in assay [1] and in assay [2] was approximately 40% each time.

Source of the values: article PMC3406685 (The Journal of Biological Chemistry, 2012).
